In US20140017259A1 (TAKIS S R L, published 2014):

T1: human ErbB3 15mer peptide QCNGHCFGPNPNQCC (human)
T1 construct: One of 158 15mer peptides of human ErbB3 overlapping by 11 residues (Jerini Peptide Technologies), coated on the ELISA plate
T1 peptide: QCNGHCFGPNPNQCC


Experiments:
HER1/EGFR = target: T2, HER1/EGFR (human, UniProt P00533 25-1210); assay: flow cytometry on transiently transfected CHO cells
T2 construct: whole, on cells

HER4 = target: T3, HER4 (human, UniProt Q15303 26-1308); assay: as above
T3 construct: whole, on cells; also called ErbB4

HER2 = target: T4, HER2 (human, UniProt P04626 23-1255); assay: as above
T4 construct: whole, on cells; also called ErbB2

[1] = target: T1, human ErbB3 15mer peptide …; assay: ELISA on plate-coated 15mer peptides, A3 at 1 µg/ml
Protocol: To identify the epitope recognized by A3 antibody, a human ErbB3 peptide collection consisting of 158 15mer peptides overlapping by 11 residues (Jerini Peptide Technologies, Berlin, Germany) has been utilized. Each peptide was resuspended in DMSO at 40 mg/ml and diluted in sodium carbonate buffer (10 mM, pH 9.6) at 1 μg/ml in 96well plates (Nunc Maxisorp) at a volume of 100 μl/well and incubated over night at 4° C. Human ErbB3 ECD-Fc protein (RnD) and buffer coated wells were used as positive and negative controls of the assay, respectively. The day after, plates were washed with 200 μl PBS 1× pH 7.4 and blocked with PBS 5% BSA for 2 hr at room temperature. After three washes with PBS, 0.05% Tween20 (PBST), plates were incubated for 2 hours at room temperature with A3 antibody diluted at 1 μg/ml in PBST, 1% BSA for 2 hours at room temperature. Plates were then washed three times in PBST and then incubated with 1/5000 diluted goat anti-mouse IgG HRP conjugated (Abcam) for one hour. After three washing in PBST, 100 μl/well 3, 3′, 5, 5′-Tetramethylbenzidine (TMB) Liquid Substrate (Sigma) were added and the reaction stopped 20 minutes later with 50 μl/well Stop Reagent for TMB Substrate (Sigma). OD₄₅₀ was determined at an ELISA reader (Perkin Elmer).

[2] = target: T5, Recombinant protein HER3-ECD-Fc (RnD Systems) (human, UniProt P21860 20-643); assay: SPR, Biacore T100: antibody captured on an anti-Fc CM5 chip, HER3-ECD-Fc injected as analyte
T5 construct: extracellular domain; also called Human ErbB3 ECD-Fc protein (RnD); not shown: Fc part of the bought fusion
Protocol: Among the hybridomas described above, two antibodies, A3 and A4, were further selected for a biochemical and functional characterization. In particular, the following assays have been performed: [0174] Bioacore analysis. Affinity for HER3 and kₒₙ/koff were determined by Surface Plasmon Resonance using a Biacore T100 instrument. A biosensor chip CM5 (GE Healthcare) was covalently bound to an anti-Fc (8000 RU) and then treated with antibodies at different concentrations (<1000 RU). Recombinant protein HER3-ECD-Fc (RnD Systems) in HBS-EP buffer at the analyte concentration 1:1 was injected for 2 minutes at 30 μl/min, followed by a 10 minutes dissociation phase. [0175] Cross-reactivity with mouse HER3 receptor and with other human ErbB receptors. […] After a wash in FACS buffer, an anti-mouse IgG conjugated with Phycoerythrin (PE, Becton Dickinson) was added and cells were analyzed by a FACSCalibur (Becton Dickinson). […] After 2 washes with PBS, 0.05% Tween20, the signal was measured by incubation with a biotinylated goat anti-NRG-1β antibody (RnD Systems) and Streptavidin conjugated with peroxidase and utilizing an HRP substrate (Pierce). Data were acquired with an ELISA reader at 450 nm. […]

[3] = target: T5, Recombinant protein HER3-ECD-Fc (RnD …); assay: competition ELISA (NRG Ligand Blocking): HER3-ECD-Fc on the plate, antibody, then 10 nM NRG-1β, bound NRG detected
mouse HER3 [4] = target: T6, mouse HER3 (mouse, UniProt Q61526 20-1339); assay: flow cytometry on CHO cells transiently transfected with mouse HER3, antibody at 10 µg/ml
T6 construct: whole, on cells; also called murine HER3

mouse HER3 [5] = target: T6, mouse HER3; assay: flow cytometry on CHO cells transiently transfected with mouse HER3

T5 sequence (P21860 20-643): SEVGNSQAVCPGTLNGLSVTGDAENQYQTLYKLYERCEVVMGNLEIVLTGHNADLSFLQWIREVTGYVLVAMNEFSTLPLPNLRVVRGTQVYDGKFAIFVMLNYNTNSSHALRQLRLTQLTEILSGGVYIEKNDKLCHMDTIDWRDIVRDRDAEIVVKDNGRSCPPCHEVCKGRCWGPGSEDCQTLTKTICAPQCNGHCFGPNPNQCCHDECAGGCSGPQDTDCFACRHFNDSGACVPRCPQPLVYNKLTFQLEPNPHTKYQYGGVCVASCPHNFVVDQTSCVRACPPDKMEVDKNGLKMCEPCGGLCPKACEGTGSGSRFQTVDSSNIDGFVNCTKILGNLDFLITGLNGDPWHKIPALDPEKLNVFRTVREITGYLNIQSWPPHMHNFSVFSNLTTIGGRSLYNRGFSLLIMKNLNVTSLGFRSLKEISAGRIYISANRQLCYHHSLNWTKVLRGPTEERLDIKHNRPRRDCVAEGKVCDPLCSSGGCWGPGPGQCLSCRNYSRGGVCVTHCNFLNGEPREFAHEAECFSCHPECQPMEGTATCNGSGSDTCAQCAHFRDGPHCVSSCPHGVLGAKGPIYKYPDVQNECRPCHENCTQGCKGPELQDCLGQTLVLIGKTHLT
T3 sequence (Q15303 26-1308): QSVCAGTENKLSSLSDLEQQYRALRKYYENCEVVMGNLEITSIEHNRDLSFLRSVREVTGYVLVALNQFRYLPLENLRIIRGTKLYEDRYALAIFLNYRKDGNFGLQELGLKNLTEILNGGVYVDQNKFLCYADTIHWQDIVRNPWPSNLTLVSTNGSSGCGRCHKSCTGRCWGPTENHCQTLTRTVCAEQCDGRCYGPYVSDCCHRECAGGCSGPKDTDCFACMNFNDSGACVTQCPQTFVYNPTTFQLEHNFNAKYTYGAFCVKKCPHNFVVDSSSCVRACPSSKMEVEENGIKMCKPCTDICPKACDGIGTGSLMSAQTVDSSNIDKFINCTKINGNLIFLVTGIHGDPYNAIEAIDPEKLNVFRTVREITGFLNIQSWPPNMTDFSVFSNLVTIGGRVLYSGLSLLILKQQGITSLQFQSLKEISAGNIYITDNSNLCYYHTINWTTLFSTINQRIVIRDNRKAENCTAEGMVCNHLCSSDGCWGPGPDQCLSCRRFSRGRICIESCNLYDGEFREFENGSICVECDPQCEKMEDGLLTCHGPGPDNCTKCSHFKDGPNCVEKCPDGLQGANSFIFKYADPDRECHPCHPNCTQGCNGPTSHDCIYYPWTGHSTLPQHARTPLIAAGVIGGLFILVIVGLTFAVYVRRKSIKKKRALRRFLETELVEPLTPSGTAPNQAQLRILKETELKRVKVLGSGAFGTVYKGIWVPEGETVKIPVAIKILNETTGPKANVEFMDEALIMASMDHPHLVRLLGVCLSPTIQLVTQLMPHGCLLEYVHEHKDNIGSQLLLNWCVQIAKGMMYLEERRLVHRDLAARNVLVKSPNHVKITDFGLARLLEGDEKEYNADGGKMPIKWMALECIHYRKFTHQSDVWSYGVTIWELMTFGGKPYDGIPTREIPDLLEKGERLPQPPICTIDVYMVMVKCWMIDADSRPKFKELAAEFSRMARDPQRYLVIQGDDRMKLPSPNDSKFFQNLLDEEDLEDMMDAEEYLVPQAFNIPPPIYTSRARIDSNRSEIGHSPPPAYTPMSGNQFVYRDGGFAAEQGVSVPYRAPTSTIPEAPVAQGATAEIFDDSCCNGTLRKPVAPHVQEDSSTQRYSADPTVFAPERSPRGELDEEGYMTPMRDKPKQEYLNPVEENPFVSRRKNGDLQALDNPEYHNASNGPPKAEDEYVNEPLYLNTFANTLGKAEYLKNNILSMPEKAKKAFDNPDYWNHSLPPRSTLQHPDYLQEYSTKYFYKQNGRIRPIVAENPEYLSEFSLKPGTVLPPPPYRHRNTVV
T6 sequence (Q61526 20-1339): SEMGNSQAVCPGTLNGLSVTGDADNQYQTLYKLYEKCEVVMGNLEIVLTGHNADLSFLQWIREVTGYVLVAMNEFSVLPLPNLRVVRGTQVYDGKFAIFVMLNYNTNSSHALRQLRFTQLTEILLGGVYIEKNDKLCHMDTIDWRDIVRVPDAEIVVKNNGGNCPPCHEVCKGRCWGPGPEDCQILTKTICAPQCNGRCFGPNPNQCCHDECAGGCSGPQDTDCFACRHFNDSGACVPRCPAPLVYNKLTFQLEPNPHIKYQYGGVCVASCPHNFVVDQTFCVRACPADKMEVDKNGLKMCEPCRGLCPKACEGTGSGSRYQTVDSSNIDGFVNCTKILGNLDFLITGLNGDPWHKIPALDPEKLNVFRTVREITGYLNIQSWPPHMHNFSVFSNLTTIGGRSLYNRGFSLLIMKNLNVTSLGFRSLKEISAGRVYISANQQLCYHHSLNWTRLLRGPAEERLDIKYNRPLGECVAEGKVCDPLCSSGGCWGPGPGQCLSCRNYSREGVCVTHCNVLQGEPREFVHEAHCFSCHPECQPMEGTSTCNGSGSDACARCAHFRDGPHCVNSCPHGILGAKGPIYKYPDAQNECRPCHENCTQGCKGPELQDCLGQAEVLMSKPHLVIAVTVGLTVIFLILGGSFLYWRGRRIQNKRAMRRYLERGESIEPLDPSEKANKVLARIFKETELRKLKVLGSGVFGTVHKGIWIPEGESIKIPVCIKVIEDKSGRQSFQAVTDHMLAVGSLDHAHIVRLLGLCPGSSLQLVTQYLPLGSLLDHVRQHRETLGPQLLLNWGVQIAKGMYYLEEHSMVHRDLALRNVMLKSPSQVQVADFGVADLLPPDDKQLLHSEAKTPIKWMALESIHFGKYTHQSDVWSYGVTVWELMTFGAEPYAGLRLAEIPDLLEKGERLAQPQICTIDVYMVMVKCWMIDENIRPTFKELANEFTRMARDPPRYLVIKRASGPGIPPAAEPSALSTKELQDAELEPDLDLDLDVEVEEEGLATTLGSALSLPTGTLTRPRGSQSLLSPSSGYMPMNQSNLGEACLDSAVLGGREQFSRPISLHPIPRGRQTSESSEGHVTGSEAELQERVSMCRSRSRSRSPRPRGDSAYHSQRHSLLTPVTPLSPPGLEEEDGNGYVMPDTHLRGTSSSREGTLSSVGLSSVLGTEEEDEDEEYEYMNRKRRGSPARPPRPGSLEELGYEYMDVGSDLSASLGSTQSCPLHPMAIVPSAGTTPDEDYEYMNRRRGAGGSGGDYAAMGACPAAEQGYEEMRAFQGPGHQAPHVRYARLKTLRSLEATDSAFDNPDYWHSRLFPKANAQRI

Row | Binder | binding result (HER1/EGFR) | binding result (HER4) | binding result (HER2) | binding result [1] | Kd [2] | IC50 [3] | binding result (mouse HER3 [4]) | binding result (mouse HER3 [5])
1 | Antibody A3 (antibody, V domains shown, Murine monoclonal IgG from a hybridoma of BALB/c mice immunised with HER3 H584F DNA; also called A3 monoclonal antibody) VH: QVTLKESGPGKLQPSQTLSLTCSFSGFSLSTYGMGVGWIRQPLGKGLEWLANIWWNDDKYYNSALKSRLTISKDTSNNQVFLKISSVDTADAATYYCVQIANPYWYFDVWGAGTTVTVSS VL: DVLMTQTPLSLPVSLGDQASISCRSSQSIVHSYGNTYLEWYLQKPGQSPKLLIYRVSNRFSGVPDRFSGSGSGTDFTLKISRVEAEDLGVYYCFQGSHVPFTFGTGTKLEIKR | no binding (tested: 10 µg/ml) | no binding (tested: 10 µg/ml) | no binding (tested: 10 µg/ml) | binds | 7.4 nM | 1.1 nM | binds | –
2 | Antibody A4 (antibody, V domains shown, Murine monoclonal IgG with a kappa light chain, from a hybridoma; also called murine A4; A4 monoclonal antibody) VH: QVQLQQPGSELVRPGASVKLSCKASGYTFTIFWIHWVKQRPGQGLEWIGNIYPGSGGTNYDEKFKSKATLTVDTFSSTAYMQLSSLTSEDSAVYYCTRWGTGKDYWGQGTTLKVSS VL: QIVLTQSPAIMSASPGEKVTMTCRARSSVSSSYLHWYQQKPGSSPKLWIYSTSNLALGVPARFSGSGSGTSYSLTISSVEAEDAATYYCQQYDSSPFTFGTGTKLEIKR | no binding (tested: 10 µg/ml) | no binding (tested: 10 µg/ml) | no binding (tested: 10 µg/ml) | – | 2.4 nM | 2.8 nM | – | no binding (tested: 10 µg/ml)
